# In US20180155451A1 (published 2018):
# T1: FcγRIIa R (extracellular domain with a His tag at the C terminus) (human, UniProt P12318 34-217)
# T1 construct: extracellular domain; expressed in FreeStyle293 cells; also called FcgRIIa R; FcγRIIa type R; not shown: His tag at the C terminus
# T1 sequence (looked up): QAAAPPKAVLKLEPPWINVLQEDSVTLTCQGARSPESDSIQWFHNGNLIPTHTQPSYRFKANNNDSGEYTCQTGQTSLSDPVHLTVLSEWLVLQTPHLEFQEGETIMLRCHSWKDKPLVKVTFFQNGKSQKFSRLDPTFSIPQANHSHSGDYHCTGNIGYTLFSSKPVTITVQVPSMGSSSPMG
# Target: T2, FcγRIa (human, UniProt P12314 16-292)
# T2 construct: extracellular domain; also called FcgRI; CD64
# Assay: SPR; vs GpH7-B3/GpL16-k0=100
# T2 sequence (P12314 16-292): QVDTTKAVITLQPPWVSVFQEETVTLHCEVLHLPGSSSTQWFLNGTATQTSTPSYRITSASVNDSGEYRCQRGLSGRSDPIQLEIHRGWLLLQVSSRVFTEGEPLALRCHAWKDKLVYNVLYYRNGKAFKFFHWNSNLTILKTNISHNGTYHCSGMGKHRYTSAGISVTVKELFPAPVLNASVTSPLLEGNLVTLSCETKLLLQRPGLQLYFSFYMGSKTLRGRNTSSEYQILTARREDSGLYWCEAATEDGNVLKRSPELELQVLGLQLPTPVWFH
row,Binder,Ho/Con_1a
1,"GpH7-B3 variant E269_04F/GpL16-k0 (antibody, human IgG1, kappa, homodimerized; also called Ho Ab E269_04F) heavy: not shown light: DIVMTQSPLSLPVTPGEPASISCQASESLVHSNRNTYLHWYLQKPGQSPQLLIYKVSNRFSGVPDRFSGSGSGTDFTLKISRVEAEDVGVYYCSQNTHVPPTFGQGTKVEIERTVAAPSVFIFPPSDEQLKSGTASVVCLLNNFYPREAKVQWKVDNALQSGNSQESVTEQDSKDSTYSLSSTLTLSKADYEKHKVYACEVTHQGLSSPVTKSFNRGEC",102 % of control
2,"GpH7-B3 variant A330_09D/GpL16-k0 (antibody, human IgG1, kappa, homodimerized; also called Ho Ab A330_09D) heavy: not shown light: DIVMTQSPLSLPVTPGEPASISCQASESLVHSNRNTYLHWYLQKPGQSPQLLIYKVSNRFSGVPDRFSGSGSGTDFTLKISRVEAEDVGVYYCSQNTHVPPTFGQGTKVEIERTVAAPSVFIFPPSDEQLKSGTASVVCLLNNFYPREAKVQWKVDNALQSGNSQESVTEQDSKDSTYSLSSTLTLSKADYEKHKVYACEVTHQGLSSPVTKSFNRGEC",108 % of control
3,"GpH7-B3 variant A330_05P/GpL16-k0 (antibody, human IgG1, kappa, homodimerized; also called Ho Ab A330_05P) heavy: not shown light: DIVMTQSPLSLPVTPGEPASISCQASESLVHSNRNTYLHWYLQKPGQSPQLLIYKVSNRFSGVPDRFSGSGSGTDFTLKISRVEAEDVGVYYCSQNTHVPPTFGQGTKVEIERTVAAPSVFIFPPSDEQLKSGTASVVCLLNNFYPREAKVQWKVDNALQSGNSQESVTEQDSKDSTYSLSSTLTLSKADYEKHKVYACEVTHQGLSSPVTKSFNRGEC",84.4 % of control
4,"GpH7-B3 variant A330_08L/GpL16-k0 (antibody, human IgG1, kappa, homodimerized; also called Ho Ab A330_08L; GpH7-B3-20-08L/GpL16-k0) heavy: not shown light: DIVMTQSPLSLPVTPGEPASISCQASESLVHSNRNTYLHWYLQKPGQSPQLLIYKVSNRFSGVPDRFSGSGSGTDFTLKISRVEAEDVGVYYCSQNTHVPPTFGQGTKVEIERTVAAPSVFIFPPSDEQLKSGTASVVCLLNNFYPREAKVQWKVDNALQSGNSQESVTEQDSKDSTYSLSSTLTLSKADYEKHKVYACEVTHQGLSSPVTKSFNRGEC",106 % of control
5,"GpH7-B3 variant A327_03V/GpL16-k0 (antibody, human IgG1, kappa, homodimerized; also called Ho Ab A327_03V) heavy: not shown light: DIVMTQSPLSLPVTPGEPASISCQASESLVHSNRNTYLHWYLQKPGQSPQLLIYKVSNRFSGVPDRFSGSGSGTDFTLKISRVEAEDVGVYYCSQNTHVPPTFGQGTKVEIERTVAAPSVFIFPPSDEQLKSGTASVVCLLNNFYPREAKVQWKVDNALQSGNSQESVTEQDSKDSTYSLSSTLTLSKADYEKHKVYACEVTHQGLSSPVTKSFNRGEC",94.4 % of control
6,"GpH7-B3 variant A327_10E/GpL16-k0 (antibody, human IgG1, kappa, homodimerized; also called Ho Ab A327_10E) heavy: not shown light: DIVMTQSPLSLPVTPGEPASISCQASESLVHSNRNTYLHWYLQKPGQSPQLLIYKVSNRFSGVPDRFSGSGSGTDFTLKISRVEAEDVGVYYCSQNTHVPPTFGQGTKVEIERTVAAPSVFIFPPSDEQLKSGTASVVCLLNNFYPREAKVQWKVDNALQSGNSQESVTEQDSKDSTYSLSSTLTLSKADYEKHKVYACEVTHQGLSSPVTKSFNRGEC",98.8 % of control
7,"GpH7-B3 variant A330_16H/GpL16-k0 (antibody, human IgG1, kappa, homodimerized; also called Ho Ab A330_16H) heavy: not shown light: DIVMTQSPLSLPVTPGEPASISCQASESLVHSNRNTYLHWYLQKPGQSPQLLIYKVSNRFSGVPDRFSGSGSGTDFTLKISRVEAEDVGVYYCSQNTHVPPTFGQGTKVEIERTVAAPSVFIFPPSDEQLKSGTASVVCLLNNFYPREAKVQWKVDNALQSGNSQESVTEQDSKDSTYSLSSTLTLSKADYEKHKVYACEVTHQGLSSPVTKSFNRGEC",104 % of control
8,"GpH7-B3 variant A330_11K/GpL16-k0 (antibody, human IgG1, kappa, homodimerized; also called Ho Ab A330_11K) heavy: not shown light: DIVMTQSPLSLPVTPGEPASISCQASESLVHSNRNTYLHWYLQKPGQSPQLLIYKVSNRFSGVPDRFSGSGSGTDFTLKISRVEAEDVGVYYCSQNTHVPPTFGQGTKVEIERTVAAPSVFIFPPSDEQLKSGTASVVCLLNNFYPREAKVQWKVDNALQSGNSQESVTEQDSKDSTYSLSSTLTLSKADYEKHKVYACEVTHQGLSSPVTKSFNRGEC",94.1 % of control
9,"GpH7-B3 variant A327_07I/GpL16-k0 (antibody, human IgG1, kappa, homodimerized; also called Ho Ab A327_07I) heavy: not shown light: DIVMTQSPLSLPVTPGEPASISCQASESLVHSNRNTYLHWYLQKPGQSPQLLIYKVSNRFSGVPDRFSGSGSGTDFTLKISRVEAEDVGVYYCSQNTHVPPTFGQGTKVEIERTVAAPSVFIFPPSDEQLKSGTASVVCLLNNFYPREAKVQWKVDNALQSGNSQESVTEQDSKDSTYSLSSTLTLSKADYEKHKVYACEVTHQGLSSPVTKSFNRGEC",95.5 % of control
10,"GpH7-B3 variant A327_09D/GpL16-k0 (antibody, human IgG1, kappa, homodimerized; also called Ho Ab A327_09D) heavy: not shown light: DIVMTQSPLSLPVTPGEPASISCQASESLVHSNRNTYLHWYLQKPGQSPQLLIYKVSNRFSGVPDRFSGSGSGTDFTLKISRVEAEDVGVYYCSQNTHVPPTFGQGTKVEIERTVAAPSVFIFPPSDEQLKSGTASVVCLLNNFYPREAKVQWKVDNALQSGNSQESVTEQDSKDSTYSLSSTLTLSKADYEKHKVYACEVTHQGLSSPVTKSFNRGEC",102 % of control
11,"GpH7-B3 variant A327_06M/GpL16-k0 (antibody, human IgG1, kappa, homodimerized; also called Ho Ab A327_06M) heavy: not shown light: DIVMTQSPLSLPVTPGEPASISCQASESLVHSNRNTYLHWYLQKPGQSPQLLIYKVSNRFSGVPDRFSGSGSGTDFTLKISRVEAEDVGVYYCSQNTHVPPTFGQGTKVEIERTVAAPSVFIFPPSDEQLKSGTASVVCLLNNFYPREAKVQWKVDNALQSGNSQESVTEQDSKDSTYSLSSTLTLSKADYEKHKVYACEVTHQGLSSPVTKSFNRGEC",93.1 % of control
12,"GpH7-B3 variant A330_14T/GpL16-k0 (antibody, human IgG1, kappa, homodimerized; also called Ho Ab A330_14T) heavy: not shown light: DIVMTQSPLSLPVTPGEPASISCQASESLVHSNRNTYLHWYLQKPGQSPQLLIYKVSNRFSGVPDRFSGSGSGTDFTLKISRVEAEDVGVYYCSQNTHVPPTFGQGTKVEIERTVAAPSVFIFPPSDEQLKSGTASVVCLLNNFYPREAKVQWKVDNALQSGNSQESVTEQDSKDSTYSLSSTLTLSKADYEKHKVYACEVTHQGLSSPVTKSFNRGEC",105 % of control
13,"GpH7-B3 variant A327_13S/GpL16-k0 (antibody, human IgG1, kappa, homodimerized; also called Ho Ab A327_13S) heavy: not shown light: DIVMTQSPLSLPVTPGEPASISCQASESLVHSNRNTYLHWYLQKPGQSPQLLIYKVSNRFSGVPDRFSGSGSGTDFTLKISRVEAEDVGVYYCSQNTHVPPTFGQGTKVEIERTVAAPSVFIFPPSDEQLKSGTASVVCLLNNFYPREAKVQWKVDNALQSGNSQESVTEQDSKDSTYSLSSTLTLSKADYEKHKVYACEVTHQGLSSPVTKSFNRGEC",86.1 % of control

# Target: T1, FcγRIIa R (extracellular domain with a …)
# Assay: SPR Biacore, relative binding
row,Binder,He/Con_2aR
1,"GpH7-A5/GpH7-B3 variant T335_05P/GpL16-k0 (antibody, human IgG1, kappa, heterodimerized; mutation in one H chain; also called He Ab) heavy 1: not shown heavy 2: not shown light: DIVMTQSPLSLPVTPGEPASISCQASESLVHSNRNTYLHWYLQKPGQSPQLLIYKVSNRFSGVPDRFSGSGSGTDFTLKISRVEAEDVGVYYCSQNTHVPPTFGQGTKVEIERTVAAPSVFIFPPSDEQLKSGTASVVCLLNNFYPREAKVQWKVDNALQSGNSQESVTEQDSKDSTYSLSSTLTLSKADYEKHKVYACEVTHQGLSSPVTKSFNRGEC",104 % of GpH7-A5/GpH7-B3/GpL16-k0 (=100)
2,"GpH7-A5/GpH7-B3 variant T335_02A/GpL16-k0 (antibody, human IgG1, kappa, heterodimerized; mutation in one H chain; also called He Ab) heavy 1: not shown heavy 2: not shown light: DIVMTQSPLSLPVTPGEPASISCQASESLVHSNRNTYLHWYLQKPGQSPQLLIYKVSNRFSGVPDRFSGSGSGTDFTLKISRVEAEDVGVYYCSQNTHVPPTFGQGTKVEIERTVAAPSVFIFPPSDEQLKSGTASVVCLLNNFYPREAKVQWKVDNALQSGNSQESVTEQDSKDSTYSLSSTLTLSKADYEKHKVYACEVTHQGLSSPVTKSFNRGEC",102 % of GpH7-A5/GpH7-B3/GpL16-k0 (=100)
3,"GpH7-A5/GpH7-B3 variant S337_20W/GpL16-k0 (antibody, human IgG1, kappa, heterodimerized; mutation in one H chain; also called He Ab) heavy 1: not shown heavy 2: not shown light: DIVMTQSPLSLPVTPGEPASISCQASESLVHSNRNTYLHWYLQKPGQSPQLLIYKVSNRFSGVPDRFSGSGSGTDFTLKISRVEAEDVGVYYCSQNTHVPPTFGQGTKVEIERTVAAPSVFIFPPSDEQLKSGTASVVCLLNNFYPREAKVQWKVDNALQSGNSQESVTEQDSKDSTYSLSSTLTLSKADYEKHKVYACEVTHQGLSSPVTKSFNRGEC",110 % of GpH7-A5/GpH7-B3/GpL16-k0 (=100)
4,"GpH7-A5/GpH7-B3 variant S337_18N/GpL16-k0 (antibody, human IgG1, kappa, heterodimerized; mutation in one H chain; also called He Ab) heavy 1: not shown heavy 2: not shown light: DIVMTQSPLSLPVTPGEPASISCQASESLVHSNRNTYLHWYLQKPGQSPQLLIYKVSNRFSGVPDRFSGSGSGTDFTLKISRVEAEDVGVYYCSQNTHVPPTFGQGTKVEIERTVAAPSVFIFPPSDEQLKSGTASVVCLLNNFYPREAKVQWKVDNALQSGNSQESVTEQDSKDSTYSLSSTLTLSKADYEKHKVYACEVTHQGLSSPVTKSFNRGEC",107 % of GpH7-A5/GpH7-B3/GpL16-k0 (=100)
5,"GpH7-A5/GpH7-B3 variant T335_07I/GpL16-k0 (antibody, human IgG1, kappa, heterodimerized; mutation in one H chain; also called He Ab) heavy 1: not shown heavy 2: not shown light: DIVMTQSPLSLPVTPGEPASISCQASESLVHSNRNTYLHWYLQKPGQSPQLLIYKVSNRFSGVPDRFSGSGSGTDFTLKISRVEAEDVGVYYCSQNTHVPPTFGQGTKVEIERTVAAPSVFIFPPSDEQLKSGTASVVCLLNNFYPREAKVQWKVDNALQSGNSQESVTEQDSKDSTYSLSSTLTLSKADYEKHKVYACEVTHQGLSSPVTKSFNRGEC",109 % of GpH7-A5/GpH7-B3/GpL16-k0 (=100)
6,"GpH7-A5/GpH7-B3 variant T335_10E/GpL16-k0 (antibody, human IgG1, kappa, heterodimerized; mutation in one H chain; also called He Ab) heavy 1: not shown heavy 2: not shown light: DIVMTQSPLSLPVTPGEPASISCQASESLVHSNRNTYLHWYLQKPGQSPQLLIYKVSNRFSGVPDRFSGSGSGTDFTLKISRVEAEDVGVYYCSQNTHVPPTFGQGTKVEIERTVAAPSVFIFPPSDEQLKSGTASVVCLLNNFYPREAKVQWKVDNALQSGNSQESVTEQDSKDSTYSLSSTLTLSKADYEKHKVYACEVTHQGLSSPVTKSFNRGEC",111 % of GpH7-A5/GpH7-B3/GpL16-k0 (=100)
7,"GpH7-A5/GpH7-B3 variant S337_19Q/GpL16-k0 (antibody, human IgG1, kappa, heterodimerized; mutation in one H chain; also called He Ab) heavy 1: not shown heavy 2: not shown light: DIVMTQSPLSLPVTPGEPASISCQASESLVHSNRNTYLHWYLQKPGQSPQLLIYKVSNRFSGVPDRFSGSGSGTDFTLKISRVEAEDVGVYYCSQNTHVPPTFGQGTKVEIERTVAAPSVFIFPPSDEQLKSGTASVVCLLNNFYPREAKVQWKVDNALQSGNSQESVTEQDSKDSTYSLSSTLTLSKADYEKHKVYACEVTHQGLSSPVTKSFNRGEC",106 % of GpH7-A5/GpH7-B3/GpL16-k0 (=100)
8,"GpH7-A5/GpH7-B3 variant T335_13S/GpL16-k0 (antibody, human IgG1, kappa, heterodimerized; mutation in one H chain; also called He Ab) heavy 1: not shown heavy 2: not shown light: DIVMTQSPLSLPVTPGEPASISCQASESLVHSNRNTYLHWYLQKPGQSPQLLIYKVSNRFSGVPDRFSGSGSGTDFTLKISRVEAEDVGVYYCSQNTHVPPTFGQGTKVEIERTVAAPSVFIFPPSDEQLKSGTASVVCLLNNFYPREAKVQWKVDNALQSGNSQESVTEQDSKDSTYSLSSTLTLSKADYEKHKVYACEVTHQGLSSPVTKSFNRGEC",110 % of GpH7-A5/GpH7-B3/GpL16-k0 (=100)
